Assay results reported in US20140087995A1 (published 2014).
Numbered stars: 1 amine (or outer) side, 2 acyl side, 3 side chain; on linkers, the order of the positions; unused ones are H or OH. Bridge positions count the residues as written; N and C are the ends. * marks the point of attachment. C20 diacid = O=C(O)CCCCCCCCCCCCCCCCCCC(=O)*; γGlu = O=C(O)[C@H](CCC(=O)[*:2])N[*:1]

T1: human amylin 3(a) receptor (human calcitonin receptor plus RAMP-3) (human, UniProt P30988 25-474; O60896 24-148, limits assumed)
T1 construct: whole, on cells; Whole cells in the luciferase assay (Assay II a); also called hAmylin-R; human amylin receptor
T1 sequence (looked up) 1: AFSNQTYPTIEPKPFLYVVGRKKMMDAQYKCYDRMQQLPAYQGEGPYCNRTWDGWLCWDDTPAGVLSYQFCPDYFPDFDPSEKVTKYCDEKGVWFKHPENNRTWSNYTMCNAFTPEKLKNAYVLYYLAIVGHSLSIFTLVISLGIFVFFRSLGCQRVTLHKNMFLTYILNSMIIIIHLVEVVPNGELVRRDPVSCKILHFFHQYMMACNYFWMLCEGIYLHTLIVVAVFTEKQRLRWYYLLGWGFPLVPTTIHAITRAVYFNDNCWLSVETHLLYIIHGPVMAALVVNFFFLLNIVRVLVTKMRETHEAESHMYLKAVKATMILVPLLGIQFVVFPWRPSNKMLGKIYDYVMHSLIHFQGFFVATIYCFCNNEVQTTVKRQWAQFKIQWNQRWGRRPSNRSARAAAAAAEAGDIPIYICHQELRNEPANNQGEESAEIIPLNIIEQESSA
T1 sequence (looked up) 2: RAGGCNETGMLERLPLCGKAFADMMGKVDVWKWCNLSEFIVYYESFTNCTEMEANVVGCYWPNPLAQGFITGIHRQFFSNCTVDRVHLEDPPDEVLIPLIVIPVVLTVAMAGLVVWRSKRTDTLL

T2: human calcitonin receptor (human, UniProt P30988 25-474)
T2 sequence (looked up): T1 sequence (looked up) 1

B1: N^α1-[(4S)-4-carboxy-4-(19-carboxynonadecanoylamino)butanoyl]-[Glu14,Arg17,Pro21,Pro26]-h-amylin (peptide)
peptide: {C20 diacid-γGlu}-KCNTATCATQRLAEFLRHSSPNFGAPLSSTNVGSNTY-NH2
modifications: disulfide 2-7
SMILES: CC(C)C[C@H](NC(=O)[C@H](CCCNC(=N)N)NC(=O)[C@H](CCC(N)=O)NC(=O)[C@@H](NC(=O)[C@H](C)NC(=O)[C@@H]1CSSC[C@H](NC(=O)[C@H](CCCCN)NC(=O)CC[C@H](NC(=O)CCCCCCCCCCCCCCCCCCC(=O)O)C(=O)O)C(=O)N[C@@H](CC(N)=O)C(=O)N[C@@H]([C@@H](C)O)C(=O)N[C@@H](C)C(=O)N[C@@H]([C@@H](C)O)C(=O)N1)[C@@H](C)O)C(=O)N[C@@H](C)C(=O)N[C@@H](CCC(=O)O)C(=O)N[C@@H](Cc1ccccc1)C(=O)N[C@@H](CC(C)C)C(=O)N[C@@H](CCCNC(=N)N)C(=O)N[C@@H](Cc1c[nH]cn1)C(=O)N[C@@H](CO)C(=O)N[C@@H](CO)C(=O)N1CCC[C@H]1C(=O)N[C@@H](CC(N)=O)C(=O)N[C@@H](Cc1ccccc1)C(=O)NCC(=O)N[C@@H](C)C(=O)N1CCC[C@H]1C(=O)N[C@@H](CC(C)C)C(=O)N[C@@H](CO)C(=O)N[C@@H](CO)C(=O)N[C@H](C(=O)N[C@@H](CC(N)=O)C(=O)N[C@H](C(=O)NCC(=O)N[C@@H](CO)C(=O)N[C@@H](CC(N)=O)C(=O)N[C@H](C(=O)N[C@@H](Cc1ccc(O)cc1)C(N)=O)[C@@H](C)O)C(C)C)[C@@H](C)O
notes: also called compound 7
B2: N^α1-[(4S)-4-carboxy-4-(19-carboxynonadecanoylamino)butanoyl]-[Glu14,Arg17,Pro21,Pro27,Asp35,Pro37]-h-amylin (peptide)
peptide: {C20 diacid-γGlu}-KCNTATCATQRLAEFLRHSSPNFGAIPSSTNVGSDTP-NH2
modifications: disulfide 2-7
SMILES: CC[C@H](C)[C@H](NC(=O)[C@H](C)NC(=O)CNC(=O)[C@H](Cc1ccccc1)NC(=O)[C@H](CC(N)=O)NC(=O)[C@@H]1CCCN1C(=O)[C@H](CO)NC(=O)[C@H](CO)NC(=O)[C@H](Cc1c[nH]cn1)NC(=O)[C@H](CCCNC(=N)N)NC(=O)[C@H](CC(C)C)NC(=O)[C@H](Cc1ccccc1)NC(=O)[C@H](CCC(=O)O)NC(=O)[C@H](C)NC(=O)[C@H](CC(C)C)NC(=O)[C@H](CCCNC(=N)N)NC(=O)[C@H](CCC(N)=O)NC(=O)[C@@H](NC(=O)[C@H](C)NC(=O)[C@@H]1CSSC[C@H](NC(=O)[C@H](CCCCN)NC(=O)CC[C@H](NC(=O)CCCCCCCCCCCCCCCCCCC(=O)O)C(=O)O)C(=O)N[C@@H](CC(N)=O)C(=O)N[C@@H]([C@@H](C)O)C(=O)N[C@@H](C)C(=O)N[C@@H]([C@@H](C)O)C(=O)N1)[C@@H](C)O)C(=O)N1CCC[C@H]1C(=O)N[C@@H](CO)C(=O)N[C@@H](CO)C(=O)N[C@H](C(=O)N[C@@H](CC(N)=O)C(=O)N[C@H](C(=O)NCC(=O)N[C@@H](CO)C(=O)N[C@@H](CC(=O)O)C(=O)N[C@H](C(=O)N1CCC[C@H]1C(N)=O)[C@@H](C)O)C(C)C)[C@@H](C)O
notes: also called compound 11
B3: N^α1-[(4S)-4-carboxy-4-(19-carboxynonadecanoylamino)butanoyl]-[Glu14,Arg17,Pro21,Pro27,Arg35]-h-amylin (peptide)
peptide: {C20 diacid-γGlu}-KCNTATCATQRLAEFLRHSSPNFGAIPSSTNVGSRTY-NH2
modifications: disulfide 2-7
SMILES: CC[C@H](C)[C@H](NC(=O)[C@H](C)NC(=O)CNC(=O)[C@H](Cc1ccccc1)NC(=O)[C@H](CC(N)=O)NC(=O)[C@@H]1CCCN1C(=O)[C@H](CO)NC(=O)[C@H](CO)NC(=O)[C@H](Cc1c[nH]cn1)NC(=O)[C@H](CCCNC(=N)N)NC(=O)[C@H](CC(C)C)NC(=O)[C@H](Cc1ccccc1)NC(=O)[C@H](CCC(=O)O)NC(=O)[C@H](C)NC(=O)[C@H](CC(C)C)NC(=O)[C@H](CCCNC(=N)N)NC(=O)[C@H](CCC(N)=O)NC(=O)[C@@H](NC(=O)[C@H](C)NC(=O)[C@@H]1CSSC[C@H](NC(=O)[C@H](CCCCN)NC(=O)CC[C@H](NC(=O)CCCCCCCCCCCCCCCCCCC(=O)O)C(=O)O)C(=O)N[C@@H](CC(N)=O)C(=O)N[C@@H]([C@@H](C)O)C(=O)N[C@@H](C)C(=O)N[C@@H]([C@@H](C)O)C(=O)N1)[C@@H](C)O)C(=O)N1CCC[C@H]1C(=O)N[C@@H](CO)C(=O)N[C@@H](CO)C(=O)N[C@H](C(=O)N[C@@H](CC(N)=O)C(=O)N[C@H](C(=O)NCC(=O)N[C@@H](CO)C(=O)N[C@@H](CCCNC(=N)N)C(=O)N[C@H](C(=O)N[C@@H](Cc1ccc(O)cc1)C(N)=O)[C@@H](C)O)C(C)C)[C@@H](C)O
notes: also called compound 16
B4: N^α1-[(4S)-4-carboxy-4-(19-carboxynonadecanoylamino)butanoyl]-[Glu14,Arg17,Pro21,Pro27,His35]-h-amylin (peptide)
peptide: {C20 diacid-γGlu}-KCNTATCATQRLAEFLRHSSPNFGAIPSSTNVGSHTY-NH2
modifications: disulfide 2-7
SMILES: CC[C@H](C)[C@H](NC(=O)[C@H](C)NC(=O)CNC(=O)[C@H](Cc1ccccc1)NC(=O)[C@H](CC(N)=O)NC(=O)[C@@H]1CCCN1C(=O)[C@H](CO)NC(=O)[C@H](CO)NC(=O)[C@H](Cc1c[nH]cn1)NC(=O)[C@H](CCCNC(=N)N)NC(=O)[C@H](CC(C)C)NC(=O)[C@H](Cc1ccccc1)NC(=O)[C@H](CCC(=O)O)NC(=O)[C@H](C)NC(=O)[C@H](CC(C)C)NC(=O)[C@H](CCCNC(=N)N)NC(=O)[C@H](CCC(N)=O)NC(=O)[C@@H](NC(=O)[C@H](C)NC(=O)[C@@H]1CSSC[C@H](NC(=O)[C@H](CCCCN)NC(=O)CC[C@H](NC(=O)CCCCCCCCCCCCCCCCCCC(=O)O)C(=O)O)C(=O)N[C@@H](CC(N)=O)C(=O)N[C@@H]([C@@H](C)O)C(=O)N[C@@H](C)C(=O)N[C@@H]([C@@H](C)O)C(=O)N1)[C@@H](C)O)C(=O)N1CCC[C@H]1C(=O)N[C@@H](CO)C(=O)N[C@@H](CO)C(=O)N[C@H](C(=O)N[C@@H](CC(N)=O)C(=O)N[C@H](C(=O)NCC(=O)N[C@@H](CO)C(=O)N[C@@H](Cc1c[nH]cn1)C(=O)N[C@H](C(=O)N[C@@H](Cc1ccc(O)cc1)C(N)=O)[C@@H](C)O)C(C)C)[C@@H](C)O
notes: also called compound 18
B5: N^α1-[(4S)-4-carboxy-4-(19-carboxynonadecanoylamino)butanoyl]-[Glu14,Arg17,Pro21,Pro27,His34]-h-amylin (peptide)
peptide: {C20 diacid-γGlu}-KCNTATCATQRLAEFLRHSSPNFGAIPSSTNVGHNTY-NH2
modifications: disulfide 2-7
SMILES: CC[C@H](C)[C@H](NC(=O)[C@H](C)NC(=O)CNC(=O)[C@H](Cc1ccccc1)NC(=O)[C@H](CC(N)=O)NC(=O)[C@@H]1CCCN1C(=O)[C@H](CO)NC(=O)[C@H](CO)NC(=O)[C@H](Cc1c[nH]cn1)NC(=O)[C@H](CCCNC(=N)N)NC(=O)[C@H](CC(C)C)NC(=O)[C@H](Cc1ccccc1)NC(=O)[C@H](CCC(=O)O)NC(=O)[C@H](C)NC(=O)[C@H](CC(C)C)NC(=O)[C@H](CCCNC(=N)N)NC(=O)[C@H](CCC(N)=O)NC(=O)[C@@H](NC(=O)[C@H](C)NC(=O)[C@@H]1CSSC[C@H](NC(=O)[C@H](CCCCN)NC(=O)CC[C@H](NC(=O)CCCCCCCCCCCCCCCCCCC(=O)O)C(=O)O)C(=O)N[C@@H](CC(N)=O)C(=O)N[C@@H]([C@@H](C)O)C(=O)N[C@@H](C)C(=O)N[C@@H]([C@@H](C)O)C(=O)N1)[C@@H](C)O)C(=O)N1CCC[C@H]1C(=O)N[C@@H](CO)C(=O)N[C@@H](CO)C(=O)N[C@H](C(=O)N[C@@H](CC(N)=O)C(=O)N[C@H](C(=O)NCC(=O)N[C@@H](Cc1c[nH]cn1)C(=O)N[C@@H](CC(N)=O)C(=O)N[C@H](C(=O)N[C@@H](Cc1ccc(O)cc1)C(N)=O)[C@@H](C)O)C(C)C)[C@@H](C)O
notes: also called compound 17

Molecular target: T1, human amylin 3(a) receptor (human …)
Test: SPA competition binding, displacement of 125I-rat amylin from membranes of Amylin 3(a)/CRE-luc BHK cells (Assay V)
Method: The binding assay was performed using scintillation proximity assay (SPA) beads (RPNQ0001) from PerkinElmer and cell membranes from the Amylin 3(a)/CRE-luc cells (as described in Assay (II)) were used. Membranes were prepared in the following way; the cells were rinsed with PBS and incubated with Versene for approximately 5 min before harvesting. The cells were flushed with PBS and the cell-suspension was centrifuged for 5 min at 1000 rpm. Cells were homogenized (ultrathurrax) in a buffer containing 20 mM Na-HEPES and 10 mM EDTA (pH 7.4) and centrifuged at 20.000 rpm for 15 min. The resulting pellet was resuspended, homogenized and centrifuged (20.000 rpm, 15 min) in a buffer containing 20 mM Na-HEPES and 0.1 mM EDTA (pH 7.4, buffer 2). The resulting pellet was resuspended in buffer 2 and protein concentration was measured (BCA protein Assay, Pierce). The homogenate was kept cold during the whole procedure. The membranes were kept at −80° C. until use. The assay was performed in a 384 well Optiplate (PerkinElmer) in a total volume of 40 ul. Membranes were mixed with SPA beads. Final concentration of membranes 35 ng/μL final and SPA beads was 0.05 mg/well. Test-compounds were dissolved in DMSO and further diluted in assay buffer (50 mM Hepes, pH 7.4, 1 mM CaCl2, 5 mM MgCl₂, 0.1% OA and 0.02% Tween20). […] The final mixture was incubated with shaking at 400 rpm for 120 min at 25° C. prior to centrifugation (1500 rpm, 10 min). Samples were analyzed on TopCounter™ (Packard). The IC₅₀ was calculated using (one site binding competition analysis) GraphPad Prism5 as a measure of receptor affinity.

IC50	Binder
0.674 nM	B1
0.105 nM	B2
0.894 nM	B3
0.554 nM	B4
0.878 nM	B5

Molecular target: T1, human amylin 3(a) receptor (human …)
Test: cell-based or functional assay

Ratio hCT/hAmylin funct.	hAmylin-R funct. EC50	Binder
4.5	0.255 nM	B1
0.9	0.12 nM	B2
6.1	0.363 nM	B3
4.8	0.154 nM	B4
8.8	0.268 nM	B5

Molecular target: T2, human calcitonin receptor
Test: cell-based or functional assay

hCTR funct. EC50	Binder
1.16 nM	B1
0.112 nM	B2
2.21 nM	B3
0.742 nM	B4
2.35 nM	B5
